What was measured:
[1] = target: integrin β1 subunit on HUVEC cells (human) (UniProt P05556); assay: HUVEC adhesion to collagen Type IV-coated wells (10 µg/ml); 10 µg/ml antibody; the blocked ligand is type IV collagen
[2] = target: integrin β1 subunit on HUVEC cells (human) (UniProt P05556); assay: HUVEC adhesion to Arresten-coated wells (10 µg/ml); cells pre-mixed with 10 µg/ml antibody; the blocked ligand is Arresten
[3] = target: integrin β1 subunit on HUVEC cells (human) (UniProt P05556); assay: HUVEC attachment to Tumstatin-coated plates (10 µg/ml); 10 µg/ml antibody, against control IgG; the blocked ligand is Tumstatin
[4] = target: integrin β1 subunit on HUVEC cells (human) (UniProt P05556); assay: HUVEC binding to type IV collagen-coated plates; 10 µg/ml antibody, against control IgG; the blocked ligand is type IV collagen
[5] = target: integrin β1 subunit on HUVEC cells (human) (UniProt P05556); assay: HUVEC attachment to plates coated with E. coli-expressed Tumstatin-44-131 (10 µg/ml); 10 µg/ml antibody; the blocked ligand is Tumstatin-44-131
[6] = target: human αvβ3 protein (CHEMICON), soluble (human) (UniProt P06756); assay: cell-based or functional assay
[7] = target: αvβ3 integrin on C-PAE cells (bovine) (UniProt P80746); assay: C-PAE attachment to Tum-1-coated plates; the blocked ligand is Tum-1
[8] = target: αvβ3 integrin on C-PAE cells (bovine) (UniProt P80746); assay: C-PAE attachment to Tum-2-coated plates; the blocked ligand is Tum-2
[9] = target: αvβ3 integrin on C-PAE cells (bovine) (UniProt P80746); assay: C-PAE attachment to Tum-4-coated plates; the blocked ligand is Tum-4
[10] = target: αvβ3 integrin on HUVEC cells (human) (UniProt P06756); assay: HUVEC binding to vitronectin-coated plates; 10 µg/ml antibody; the blocked ligand is vitronectin
[11] = target: αvβ3 integrin on HUVEC cells (human) (UniProt P06756); assay: HUVEC adhesion to collagen Type IV-coated wells (10 µg/ml); 10 µg/ml antibody; the blocked ligand is type IV collagen
[12] = target: αvβ3 integrin on HUVEC cells (human) (UniProt P06756); assay: HUVEC attachment to Tumstatin-coated plates (10 µg/ml); 10 µg/ml antibody, against control IgG; the blocked ligand is Tumstatin
[13] = target: αvβ3 integrin on HUVEC cells (human) (UniProt P06756); assay: HUVEC attachment to Tumstatin-coated plates; αvβ3 antibody used TOGETHER with β1 antibody; the blocked ligand is Tumstatin
[14] = target: αvβ3 integrin on HUVEC cells (human) (UniProt P06756); assay: HUVEC attachment to plates coated with E. coli-expressed Tumstatin-44-131 (10 µg/ml); 10 µg/ml antibody; the blocked ligand is Tumstatin-44-131

Chain of αvβ3 integrin on HUVEC cells (human) (P06756 31-1048, chain 1 of 2): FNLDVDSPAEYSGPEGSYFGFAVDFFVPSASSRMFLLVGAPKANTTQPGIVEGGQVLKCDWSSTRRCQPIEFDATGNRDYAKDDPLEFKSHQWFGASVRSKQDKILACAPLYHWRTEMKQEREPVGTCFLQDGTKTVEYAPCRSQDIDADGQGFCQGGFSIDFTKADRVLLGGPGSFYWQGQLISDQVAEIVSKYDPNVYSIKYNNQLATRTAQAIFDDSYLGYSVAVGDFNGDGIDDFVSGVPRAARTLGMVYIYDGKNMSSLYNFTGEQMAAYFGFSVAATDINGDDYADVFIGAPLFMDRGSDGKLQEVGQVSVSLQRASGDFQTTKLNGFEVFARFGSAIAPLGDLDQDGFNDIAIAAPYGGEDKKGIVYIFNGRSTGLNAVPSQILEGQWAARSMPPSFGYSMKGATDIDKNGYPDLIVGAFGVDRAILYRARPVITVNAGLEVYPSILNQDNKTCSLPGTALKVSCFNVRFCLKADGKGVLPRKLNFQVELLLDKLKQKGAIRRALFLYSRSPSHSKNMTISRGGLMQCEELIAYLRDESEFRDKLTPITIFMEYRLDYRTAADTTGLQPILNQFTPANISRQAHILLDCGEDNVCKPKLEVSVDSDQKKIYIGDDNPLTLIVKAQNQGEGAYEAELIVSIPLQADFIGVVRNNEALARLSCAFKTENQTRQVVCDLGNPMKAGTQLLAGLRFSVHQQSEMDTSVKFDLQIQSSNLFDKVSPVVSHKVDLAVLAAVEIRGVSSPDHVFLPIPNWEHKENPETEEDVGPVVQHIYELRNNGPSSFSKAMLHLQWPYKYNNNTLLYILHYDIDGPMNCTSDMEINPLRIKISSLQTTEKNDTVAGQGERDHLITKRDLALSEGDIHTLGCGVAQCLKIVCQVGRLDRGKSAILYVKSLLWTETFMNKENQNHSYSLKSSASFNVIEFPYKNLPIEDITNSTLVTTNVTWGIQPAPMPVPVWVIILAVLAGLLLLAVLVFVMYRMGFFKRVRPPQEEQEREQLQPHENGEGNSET
Chain of αvβ3 integrin on HUVEC cells (human) (P05106 27-788, chain 2 of 2, further chain): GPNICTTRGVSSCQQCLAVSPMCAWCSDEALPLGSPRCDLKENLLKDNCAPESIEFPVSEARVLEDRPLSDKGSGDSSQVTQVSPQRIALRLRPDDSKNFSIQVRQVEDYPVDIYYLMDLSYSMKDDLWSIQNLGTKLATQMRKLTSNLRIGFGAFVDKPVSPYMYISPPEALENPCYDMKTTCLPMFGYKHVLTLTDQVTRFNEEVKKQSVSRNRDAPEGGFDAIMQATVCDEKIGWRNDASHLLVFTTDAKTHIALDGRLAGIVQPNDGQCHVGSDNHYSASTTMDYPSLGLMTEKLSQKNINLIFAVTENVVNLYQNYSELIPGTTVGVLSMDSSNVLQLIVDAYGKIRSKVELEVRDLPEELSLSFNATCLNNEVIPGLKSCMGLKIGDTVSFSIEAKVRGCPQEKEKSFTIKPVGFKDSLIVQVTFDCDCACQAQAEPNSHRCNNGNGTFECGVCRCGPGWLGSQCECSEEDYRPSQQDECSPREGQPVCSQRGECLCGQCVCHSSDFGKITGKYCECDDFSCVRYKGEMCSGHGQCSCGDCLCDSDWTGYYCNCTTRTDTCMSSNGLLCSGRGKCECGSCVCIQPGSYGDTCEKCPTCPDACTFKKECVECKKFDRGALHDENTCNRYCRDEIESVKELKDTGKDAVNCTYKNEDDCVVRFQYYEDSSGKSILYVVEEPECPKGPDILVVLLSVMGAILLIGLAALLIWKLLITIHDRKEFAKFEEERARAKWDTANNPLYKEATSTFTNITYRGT
Chain of αvβ3 integrin on C-PAE cells (bovine) (P80746 31-1048): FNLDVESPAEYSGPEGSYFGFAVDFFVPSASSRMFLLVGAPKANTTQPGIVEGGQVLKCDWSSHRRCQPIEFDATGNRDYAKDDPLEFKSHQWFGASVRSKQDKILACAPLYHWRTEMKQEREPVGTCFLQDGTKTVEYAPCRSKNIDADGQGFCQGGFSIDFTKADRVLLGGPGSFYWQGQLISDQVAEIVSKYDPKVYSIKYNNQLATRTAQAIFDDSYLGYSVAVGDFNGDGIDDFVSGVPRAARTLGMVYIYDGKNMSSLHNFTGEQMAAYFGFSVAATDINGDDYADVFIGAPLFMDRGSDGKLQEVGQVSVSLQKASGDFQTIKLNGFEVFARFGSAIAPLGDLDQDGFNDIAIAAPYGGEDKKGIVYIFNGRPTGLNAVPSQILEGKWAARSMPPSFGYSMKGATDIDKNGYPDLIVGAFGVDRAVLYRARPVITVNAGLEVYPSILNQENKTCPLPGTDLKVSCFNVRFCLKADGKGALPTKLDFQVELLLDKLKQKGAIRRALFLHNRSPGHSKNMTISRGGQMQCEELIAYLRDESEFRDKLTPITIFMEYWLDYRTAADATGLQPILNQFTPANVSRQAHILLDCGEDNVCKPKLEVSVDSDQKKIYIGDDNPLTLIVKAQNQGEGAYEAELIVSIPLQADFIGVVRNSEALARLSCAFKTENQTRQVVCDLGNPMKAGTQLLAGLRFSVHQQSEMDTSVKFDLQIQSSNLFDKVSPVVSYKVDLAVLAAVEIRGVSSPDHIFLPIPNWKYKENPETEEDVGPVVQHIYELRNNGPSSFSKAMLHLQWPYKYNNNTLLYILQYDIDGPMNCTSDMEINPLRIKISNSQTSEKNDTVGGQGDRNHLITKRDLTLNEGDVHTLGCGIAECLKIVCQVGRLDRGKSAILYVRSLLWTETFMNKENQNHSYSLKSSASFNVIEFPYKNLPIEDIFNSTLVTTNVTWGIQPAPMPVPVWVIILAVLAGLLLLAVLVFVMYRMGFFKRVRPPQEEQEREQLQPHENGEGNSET
Chain of integrin β1 subunit on HUVEC cells (human) (P05556 21-798): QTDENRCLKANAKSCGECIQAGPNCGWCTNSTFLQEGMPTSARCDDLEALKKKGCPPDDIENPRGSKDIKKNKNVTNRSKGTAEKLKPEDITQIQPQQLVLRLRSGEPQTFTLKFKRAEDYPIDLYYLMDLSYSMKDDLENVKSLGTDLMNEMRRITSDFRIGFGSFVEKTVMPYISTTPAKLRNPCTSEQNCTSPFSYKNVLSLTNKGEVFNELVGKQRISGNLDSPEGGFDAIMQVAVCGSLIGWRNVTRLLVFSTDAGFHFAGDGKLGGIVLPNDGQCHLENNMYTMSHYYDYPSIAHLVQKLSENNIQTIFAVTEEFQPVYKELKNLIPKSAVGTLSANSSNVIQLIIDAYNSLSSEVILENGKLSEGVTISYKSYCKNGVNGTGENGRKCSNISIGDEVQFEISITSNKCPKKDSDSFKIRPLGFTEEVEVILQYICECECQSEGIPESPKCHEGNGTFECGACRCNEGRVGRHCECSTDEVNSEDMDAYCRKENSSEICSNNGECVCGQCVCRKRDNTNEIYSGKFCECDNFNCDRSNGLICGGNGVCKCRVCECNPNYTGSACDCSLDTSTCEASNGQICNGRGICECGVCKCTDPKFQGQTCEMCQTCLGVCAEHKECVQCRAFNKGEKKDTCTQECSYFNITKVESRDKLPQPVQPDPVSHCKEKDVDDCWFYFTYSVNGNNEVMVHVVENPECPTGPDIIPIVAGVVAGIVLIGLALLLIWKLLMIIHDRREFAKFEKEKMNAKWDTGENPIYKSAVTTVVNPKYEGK

mouse monoclonal antibody to the human β1 integrin subunit (clone P4C10)
% inhibition of cell adhesion [1]: 40%
% inhibition of cell adhesion [2]: 70%
% inhibition of cell attachment [3]: 54%
% inhibition of cell binding [4]: 53%
% inhibition of cell attachment [5]: 47.5%

Tum-4 (from UniProt Q01955 1607-1670) (ligand)
recovery of the Tum-4-induced anti-proliferative effect on WM-164 melanoma cells after pre-incubation with αvβ3 protein (methylene blue) [6]: 76.7%

monoclonal antibody to αvβ3 integrin (clone LM609, CHEMICON)
% inhibition of cell attachment [7]: 55.9%
% inhibition of cell attachment [8]: 69.8%
% inhibition of cell attachment [9]: 62.6%
% inhibition of cell binding [10]: 61%
% inhibition of cell adhesion [11]: 15%
% inhibition of cell attachment [12]: 80%
% inhibition of cell attachment [13]: 91%
% inhibition of cell attachment [14]: 47.1%

Tum-2 (from UniProt Q01955 1427-1558) (ligand)
recovery of Tum-2's anti-proliferative effect on C-PAE cells after pre-incubation with αvβ3 protein (methylene blue) [6]: 74.1%
